Source: PMC8544716

What was measured:
Conditions in all cases: EMSA: 0.2 uM 5'-labelled RNA (90 C 2 min, slow cool to 37 C), yeast tRNA 0.1 ug/reaction, Hfq hexamer 0-500 nM, structure buffer (Ambion), 10 min at 37 C, then …
Hfq (Escherichia coli) [1] = assay: EMSA
Hfq (Escherichia coli) [2] = biological target: Hfq (Escherichia coli) (UniProt P0A6X3); assay: EMSA
Hfq (Escherichia coli) [3] = biological target: Hfq (Escherichia coli) (UniProt P0A6X3); assay: footprinting (lead acetate)

Hfq (Escherichia coli) (UniProt P0A6X3), sequence (P0A6X3 whole entry): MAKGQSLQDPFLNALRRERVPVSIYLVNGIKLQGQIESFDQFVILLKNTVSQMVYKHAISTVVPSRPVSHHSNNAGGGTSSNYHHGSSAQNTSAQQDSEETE

| Substance | Kd (Hfq (Escherichia coli) [1]) [nM] | Kd (Hfq (Escherichia coli) [2]) [nM] | binding (Hfq (Escherichia coli) [3]) |
| --- | --- | --- | --- |
| sodB130 | 156 | – | – |
| GGAUACGCACAAUAAGGCUAUUGUACGUAUGCAGGCCGGCAAUAAAGGAGAGUAGCAAUGUCAUUCGAAUUACCUGCACUACCAUAUGCUAAAGAUGCUCUGGCACCGCACAUUUCUGCGGAAACCAUCGAGGAUCCCUAGC [sodB130MH] | – | 314 | – |
| GGAUACGCACAAUAAGGCUAUUGUACGUAUGCAAAUUAAUAAUAAAGGAGAGUAGCAAUGUCAUUCGAAUUACCUGCACUACCAUAUGCUAAAGAUGCUCUGGCACCGCACAUUUCUGCGGAAACCAUCGAGGAUCCCUAGC [sodB130] | – | 156 | binds |
